Source: patent publication US20240270846A1 (published 2024)
Positions count from the first letter of the chain named. In names and notes the source's numbering stands. Values belong to the binder of their own block, whether it stands above or below them.

Biological target: T1, CD3 epsilon homodimer protein (UniProt P07766 23-126)
T1 construct: Construct of the homodimer is not described; also called CD3 (CD3 epsilon)
Assay: SPR Biacore T200, CD3e homodimer on chip, antibody analyte;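 note: CD3 epsilon homodimer amine-coupled on CM4 sensor chip, antibodies injected as analyte at 25 °C in HBS-EP+, ratio ≥0.8 taken as binding retained versus unaltered parent antibody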

T1 sequence (P07766 23-126): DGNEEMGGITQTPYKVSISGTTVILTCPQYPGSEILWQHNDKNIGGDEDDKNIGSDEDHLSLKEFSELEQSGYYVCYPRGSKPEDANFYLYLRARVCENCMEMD

ratio of amounts bound (altered form/GLS3000): 0.69
B2: GLS3000 F55W one-arm antibody (antibody, human IgG1, kappa, L234A L235A, N297A, name in Kabat numbering)
light: DIVMTQSPLSLPVTPGEPASISCRSSQSLVHSNRNTYLHWYQQKPGQAPRLLIYKVSNRWSGVPDRFSGSGSGTDFTLKISRVEAEDVGVYYCGQGTQVPYTFGQGTKLEIKRTVAAPSVFIFPPSDEQLKSGTASVVCLLNNFYPREAKVQWKVDNALQSGNSQESVTEQDSKDSTYSLSSTLTLSKADYEKHKVYACEVTHQGLSSPVTKSFNRGEC
heavy: QVQLVESGGGVVQPGRSLRLSCAASGFTFSNAWMHWVRQAPGKGLEWVAQIKAKSNNYATYYAESVKGRFTISRDDSKNSLYLQMNSLKTEDTAVYYCRYVHYGAYYGVDAWGQGTTVTVSSASTKGPSVFPLAPSSKSTSGGTAALGCLVKDYFPEPVTVSWNSGALTSGVHTFPAVLQSSGLYSLSSVVTVPSSSLGTQTYICNVNHKPSNTKVDKKVEPKSCDKTHTCPPCPAPEAAGGPSVFLFPPKPKDTLMISRTPEVTCVVVDVSHEDPEVKFNWYVDGVEVHNAKTKPREEQYASTYRVVSVLTVLHQDWLNGKEYKCKVSNKALPAPIEKTISKAKGQPREPQVYTLPPSRCELTKNQVSLSCAVKGFYPSDIAVEWESNGQPENNYKTTPPVLDSDGSFFLVSKLTVDKSRWQQGNVFSCSVMHEALHNHYTQKSLSLSPDYKDDDDK
chain: EPKSSDKTHTCPPCPAPELLGGPSVFLFPPKPKDTLMISRTPEVTCVVVDVSHEDPEVKFNWYVDGVEVHNAKTKPREEQYNSTYRVVSVLTVLHQDWLNGKEYKCKVSNKALPAPIEKTISKAKGQPREPQVCTLPPSRDELTKNQVSLWCLVKGFYPSDIAVEWESNGQPENNYKTTPPVLDSDGSFFLYSKLTVDKSRWQQGNVFSCSVMHEALHNRYTQKSLSLSP

ratio of amounts bound (altered form/GLS3000): 0.92
B3: GLS3000 F55Y one-arm antibody (antibody, human IgG1, kappa, L234A L235A, N297A, name in Kabat numbering)
light: B2 light with W60Y
heavy: B2 heavy
chain: B2 chain

ratio of amounts bound (altered form/GLS3000): 0.69
B5: GLS3000 F55S one-arm antibody (antibody, human IgG1, kappa, L234A L235A, N297A, name in Kabat numbering)
light: B2 light with W60S
heavy: B2 heavy
chain: B2 chain

ratio of amounts bound (altered form/GLS3000): 0.41
B8: GLS3000 F55T one-arm antibody (antibody, human IgG1, kappa, L234A L235A, N297A, name in Kabat numbering)
light: B2 light with W60T
heavy: B2 heavy
chain: B2 chain

ratio of amounts bound (altered form/GLS3000): 1.13
B10: GLS3000 G89A one-arm antibody (antibody, human IgG1, kappa, L234A L235A, N297A, name in Kabat numbering)
light: B2 light with W60F, G94A
heavy: B2 heavy
chain: B2 chain

ratio of amounts bound (altered form/GLS3000): 1.31
B11: GLS3000 F55R one-arm antibody (antibody, human IgG1, kappa, L234A L235A, N297A, name in Kabat numbering)
light: B2 light with W60R
heavy: B2 heavy
chain: B2 chain

ratio of amounts bound (altered form/GLS3000): 0.7
B15: GLS3000 G89H one-arm antibody (antibody, human IgG1, kappa, L234A L235A, N297A, name in Kabat numbering)
light: B2 light with W60F, G94H
heavy: B2 heavy
chain: B2 chain

ratio of amounts bound (altered form/GLS3000): 1.07
B16: GLS3000 G89I one-arm antibody (antibody, human IgG1, kappa, L234A L235A, N297A, name in Kabat numbering)
light: B2 light with W60F, G94I
heavy: B2 heavy
chain: B2 chain

ratio of amounts bound (altered form/GLS3000): 0.26
B17: GLS3000 G89E one-arm antibody (antibody, human IgG1, kappa, L234A L235A, N297A, name in Kabat numbering)
light: B2 light with W60F, G94E
heavy: B2 heavy
chain: B2 chain

ratio of amounts bound (altered form/GLS3000): 0.71
B18: GLS3000 F55V one-arm antibody (antibody, human IgG1, kappa, L234A L235A, N297A, name in Kabat numbering)
light: B2 light with W60V
heavy: B2 heavy
chain: B2 chain

ratio of amounts bound (altered form/GLS3000): 1.09
B21: GLS3000 G89F one-arm antibody (antibody, human IgG1, kappa, L234A L235A, N297A, name in Kabat numbering)
light: B2 light with W60F, G94F
heavy: B2 heavy
chain: B2 chain

ratio of amounts bound (altered form/GLS3000): 0.33
B23: GLS3000 G89D one-arm antibody (antibody, human IgG1, kappa, L234A L235A, N297A, name in Kabat numbering)
light: B2 light with W60F, G94D
heavy: B2 heavy
chain: B2 chain

More lines, now with the values behind:

B1: GLS3000 V94A one-arm antibody (antibody, human IgG1, kappa, L234A L235A, N297A, name in Kabat numbering)
light: B2 light with W60F, V99A
heavy: B2 heavy
chain: B2 chain
ratio of amounts bound (altered form/GLS3000): 1.05

B4: GLS3000 F55M one-arm antibody (antibody, human IgG1, kappa, L234A L235A, N297A, name in Kabat numbering)
light: B2 light with W60M
heavy: B2 heavy
chain: B2 chain
ratio of amounts bound (altered form/GLS3000): 0.8

B6: GLS3000 F55N one-arm antibody (antibody, human IgG1, kappa, L234A L235A, N297A, name in Kabat numbering)
light: B2 light with W60N
heavy: B2 heavy
chain: B2 chain
ratio of amounts bound (altered form/GLS3000): 0.98

B7: GLS3000 F55H one-arm antibody (antibody, human IgG1, kappa, L234A L235A, N297A, name in Kabat numbering)
light: B2 light with W60H
heavy: B2 heavy
chain: B2 chain
ratio of amounts bound (altered form/GLS3000): 0.94

B9: GLS3000 F55P one-arm antibody (antibody, human IgG1, kappa, L234A L235A, N297A, name in Kabat numbering)
light: B2 light with W60P
heavy: B2 heavy
chain: B2 chain
ratio of amounts bound (altered form/GLS3000): 1.16

B12: GLS3000 F55L one-arm antibody (antibody, human IgG1, kappa, L234A L235A, N297A, name in Kabat numbering)
light: B2 light with W60L
heavy: B2 heavy
chain: B2 chain
ratio of amounts bound (altered form/GLS3000): 0.76

B13: GLS3000 F55Q one-arm antibody (antibody, human IgG1, kappa, L234A L235A, N297A, name in Kabat numbering)
light: B2 light with W60Q
heavy: B2 heavy
chain: B2 chain
ratio of amounts bound (altered form/GLS3000): 0.91

B14: GLS3000 F55E one-arm antibody (antibody, human IgG1, kappa, L234A L235A, N297A, name in Kabat numbering)
light: B2 light with W60E
heavy: B2 heavy
chain: B2 chain
ratio of amounts bound (altered form/GLS3000): 0.72

B19: GLS3000 F55G one-arm antibody (antibody, human IgG1, kappa, L234A L235A, N297A, name in Kabat numbering)
light: B2 light with W60G
heavy: B2 heavy
chain: B2 chain
ratio of amounts bound (altered form/GLS3000): 1.31

B20: GLS3000 F55K one-arm antibody (antibody, human IgG1, kappa, L234A L235A, N297A, name in Kabat numbering)
light: B2 light with W60K
heavy: B2 heavy
chain: B2 chain
ratio of amounts bound (altered form/GLS3000): 1.33

B22: GLS3000 F55I one-arm antibody (antibody, human IgG1, kappa, L234A L235A, N297A, name in Kabat numbering)
light: B2 light with W60I
heavy: B2 heavy
chain: B2 chain
ratio of amounts bound (altered form/GLS3000): 0.82
